From the supplement of paper PMC10724198
± gives the standard deviation of the averaged measurements.

The sequences below were run on Saccharomyces cerevisiae (assay: protein stability index of tFT-peptide fusion (C-terminal peptide) (PSI (0-1 scale)); higher = more stable (slower turnover)). Details: genetic background: wild type; temperature: 30 C.
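Further: PSI is a weighted mean of sequencing reads over stability bins, variants kept only with over 10 reads, mCherry proximal and sfGFP distal, peptide attached via GGGS linker.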

First: PPPPPPPSPPFS
Second: PPPPPPPSSPPP
The protein stability index of the first is higher: 0.783 ± 0.031 for the first, 0.732 ± 0.012 for the second.

PPPPPPQTPRPR and PPPPPPSPLPPY are within error of each other in protein stability index: 0.683 ± 0.061 for the first, 0.703 ± 0.01 for the second.

Going from PPPPPPSPPRLP to PPPPPPTPPSLS, the protein stability index rises from 0.592 ± 0.03 to 0.7449 ± 0.001.

PPPPPRPRSLLS and PPPPPSSRPLSN are within error of each other in protein stability index: 0.711 ± 0.063 for the first, 0.627 ± 0.079 for the second.

PPPPPTPPPARP and PPPPPVLPNRIP are within error of each other in protein stability index: 0.695 ± 0.054 for the first, 0.781 ± 0.04 for the second.

Going from PPPPQPTAPPNP to PPPPSLLPLSLP, the protein stability index falls from 0.717 ± 0.049 to 0.608 ± 0.02.

PPPPSPPLTRSL and PPPPTLPPPPLS are within error of each other in protein stability index: 0.783 ± 0.08 for the first, 0.722 ± 0.14 for the second.

PPPPTTATRQQT and PPPQLRPLPQSL are within error of each other in protein stability index: 0.691 ± 0.016 for the first, 0.704 ± 0.018 for the second.

PPPQYILPPRFP and PPPRPCRAPAAA are within error of each other in protein stability index: 0.691 ± 0.017 for the first, 0.668 ± 0.089 for the second.

PPPRPGLPAPVP and PPPRPLPVLFLP are within error of each other in protein stability index: 0.683 ± 0.05 for the first, 0.611 ± 0.06 for the second.

PPPRPPHAPFSL and PPPRPPHGPLPY are within error of each other in protein stability index: 0.702 ± 0.039 for the first, 0.658 ± 0.037 for the second.

PPPRPPPPSCPP and PPPRPPRPPLPS are within error of each other in protein stability index: 0.685 ± 0.092 for the first, 0.727 ± 0.02 for the second.

PPPRPTPAPPRV and PPPRSPLFSLPP are within error of each other in protein stability index: 0.65 ± 0.032 for the first, 0.678 ± 0.032 for the second.

Compared with PPPSALPPLPQP, PPPSCPPPPSRS is higher in protein stability index: 0.712 ± 0.01 for the first, 0.7754 ± 0.0068 for the second.

Compared with PPPSHSLPSLPI, PPPSLPPLPSPS is higher in protein stability index: 0.626 ± 0.033 for the first, 0.725 ± 0.027 for the second.

PPPSLPPPSATA and PPPSLSPAPAPP are within error of each other in protein stability index: 0.689 ± 0.087 for the first, 0.736 ± 0.027 for the second.

PPPSPCHPPSPP and PPPSPPDCLPLP are within error of each other in protein stability index: 0.67 ± 0.12 for the first, 0.649 ± 0.086 for the second.

Compared with PPPSPPLPRHLA, PPPSPPSVPRAS is lower in protein stability index: 0.746 ± 0.06 for the first, 0.643 ± 0.027 for the second.

First: PPPSRPPQLHPA
Second: PPPSSPPTHLTS
The protein stability index of the first is lower: 0.605 ± 0.021 for the first, 0.678 ± 0.012 for the second.

PPPSSPTPPHSR and PPPSTRSNPGLD are within error of each other in protein stability index: 0.738 ± 0.082 for the first, 0.745 ± 0.028 for the second.

PPPSVPPSLTPP and PPPTHPTSTSSI are within error of each other in protein stability index: 0.693 ± 0.03 for the first, 0.699 ± 0.02 for the second.

PPPTLPPPSPFP and PPPTPKITPMSI are within error of each other in protein stability index: 0.705 ± 0.038 for the first, 0.6871 ± 0.0018 for the second.

PPPTPPSRILPA and PPPTPRPAFLPP are within error of each other in protein stability index: 0.699 ± 0.016 for the first, 0.6969 ± 0.0037 for the second.

Compared with PPPTPSDPQNSS, PPPWSFPCPSAS is higher in protein stability index: 0.644 ± 0.007 for the first, 0.778 ± 0.084 for the second.

First: PPPYPRSTPFVP
Second: PPQALPHSSKQA
The protein stability index of the first is lower: 0.6774 ± 0.005 for the first, 0.6931 ± 0.0025 for the second.

PPRLHAPPPSPP and PPRPLLPTPSPL are within error of each other in protein stability index: 0.716 ± 0.016 for the first, 0.7 ± 0.056 for the second.

PPRPLPARRLSF and PPRPLPPPPPPT are within error of each other in protein stability index: 0.753 ± 0.081 for the first, 0.716 ± 0.017 for the second.

PPRPPPSPPLPP and PPRPPSPPPPSP are within error of each other in protein stability index: 0.696 ± 0.062 for the first, 0.632 ± 0.02 for the second.

PPRPRPPSSPST and PPRPSPPPLPPS are within error of each other in protein stability index: 0.641 ± 0.0099 for the first, 0.683 ± 0.051 for the second.

PPRRAPPPIRLP and PPRSFLPPRFSW are within error of each other in protein stability index: 0.746 ± 0.074 for the first, 0.702 ± 0.066 for the second.

PPRSFPGTPLIA and PPRSLPPPTSPL are within error of each other in protein stability index: 0.67 ± 0.069 for the first, 0.731 ± 0.011 for the second.

PPRTPFSLPPPA and PPRTSPRLLPPP are within error of each other in protein stability index: 0.73 ± 0.054 for the first, 0.686 ± 0.0069 for the second.

PPRVFGFFPFPP and PPSAPLPTLLHH are within error of each other in protein stability index: 0.774 ± 0.079 for the first, 0.722 ± 0.094 for the second.

PPSAPPLPPLPL and PPSFLLVCPRPP are the same in protein stability index: 0.69 ± 0.014 for the first, 0.6897 ± 0.0068 for the second.

PPSHGRSSQSPR and PPSLAPPPTSRP are within error of each other in protein stability index: 0.731 ± 0.1 for the first, 0.679 ± 0.054 for the second.

PPSLGPHSTSCD and PPSLPPLPPSPA are within error of each other in protein stability index: 0.715 ± 0.071 for the first, 0.656 ± 0.085 for the second.

PPSLTPAALPAA and PPSPASASPDRR are within error of each other in protein stability index: 0.745 ± 0.072 for the first, 0.695 ± 0.022 for the second.

PPSPELALSLGH and PPSPHPSLPPPR are within error of each other in protein stability index: 0.673 ± 0.038 for the first, 0.668 ± 0.024 for the second.

PPSPLQGRICFV and PPSPLSTLPSPH are within error of each other in protein stability index: 0.698 ± 0.032 for the first, 0.679 ± 0.045 for the second.

PPSPPPAFPPPA and PPSPPPPPAAST are within error of each other in protein stability index: 0.64 ± 0.059 for the first, 0.768 ± 0.13 for the second.

PPSPPSLRSSPP and PPSPPVPRFSLL are within error of each other in protein stability index: 0.744 ± 0.13 for the first, 0.69503 ± 0.00011 for the second.

PPSPPVRPPLLA and PPSPSPPPYHFP are within error of each other in protein stability index: 0.617 ± 0.14 for the first, 0.676 ± 0.023 for the second.

PPSPSSLPPPPL and PPSPTPPLPSCP are within error of each other in protein stability index: 0.733 ± 0.0075 for the first, 0.702 ± 0.029 for the second.

Compared with PPSRDRSGCISV, PPSRDSHPPPPP is lower in protein stability index: 0.709 ± 0.021 for the first, 0.627 ± 0.02 for the second.

PPSRLLFPSPPA and PPSRLSPPPPPS are within error of each other in protein stability index: 0.683 ± 0.055 for the first, 0.71 ± 0.016 for the second.

PPSRPLPALPFP and PPSRPLPSPLPP are within error of each other in protein stability index: 0.676 ± 0.097 for the first, 0.631 ± 0.03 for the second.

PPSRPPAPSPRS and PPSRPPPARREP are within error of each other in protein stability index: 0.695 ± 0.037 for the first, 0.7 ± 0.022 for the second.

Going from PPSRPSASFALL to PPSSYGCGRQMP, the protein stability index falls from 0.743 ± 0.026 to 0.645 ± 0.038.

PPTAPCPPPLPP and PPTFFQRSPLRP are within error of each other in protein stability index: 0.645 ± 0.012 for the first, 0.681 ± 0.033 for the second.

PPTFLPLPSSPP and PPTHPPLPPPLL are within error of each other in protein stability index: 0.651 ± 0.079 for the first, 0.689 ± 0.07 for the second.

PPTPPPNPPSRY and PPTPPPPRSTPS are within error of each other in protein stability index: 0.715 ± 0.021 for the first, 0.766 ± 0.035 for the second.

PPTPPPVPPPWS and PPTPPTARPIVL are within error of each other in protein stability index: 0.669 ± 0.044 for the first, 0.677 ± 0.018 for the second.

PPTRLPQGVSWR and PPVLSLGPPFTS are within error of each other in protein stability index: 0.702 ± 0.066 for the first, 0.73 ± 0.11 for the second.

PPYFFPSDPRPD and PQIVRSFLLFPP are within error of each other in protein stability index: 0.748 ± 0.067 for the first, 0.69 ± 0.0076 for the second.

PQPPTPLTPTPP and PQSIHASIYFRL are within error of each other in protein stability index: 0.697 ± 0.089 for the first, 0.634 ± 0.02 for the second.

PQTYHRPPPPLH and PQYLALLRTSIP are within error of each other in protein stability index: 0.702 ± 0.028 for the first, 0.739 ± 0.043 for the second.

PRALCPPPSPST and PRAPRVSTRRPE are within error of each other in protein stability index: 0.697 ± 0.043 for the first, 0.793 ± 0.083 for the second.

PRASPPPLPPSP and PRCSVYPITGPY are within error of each other in protein stability index: 0.717 ± 0.032 for the first, 0.682 ± 0.046 for the second.

PRFLGWGGCLWV and PRGGLGTGWGRR are within error of each other in protein stability index: 0.7265 ± 0.0045 for the first, 0.731 ± 0.079 for the second.

PRGILLATPEGH and PRHCYIPLPLLP are within error of each other in protein stability index: 0.684 ± 0.021 for the first, 0.661 ± 0.021 for the second.

PRHISIHPNATP and PRLLPFPPPLDH are within error of each other in protein stability index: 0.705 ± 0.045 for the first, 0.735 ± 0.083 for the second.

PRLPGPAAIARR and PRLQLHSDPNCS are within error of each other in protein stability index: 0.6714 ± 0.004 for the first, 0.733 ± 0.087 for the second.

PRLSPPSSPGPP and PRLVHGFPRFHP are within error of each other in protein stability index: 0.631 ± 0.03 for the first, 0.669 ± 0.033 for the second.

PRPFPLSCSPPV and PRPHRLPPRPFH are within error of each other in protein stability index: 0.751 ± 0.083 for the first, 0.6917 ± 0.0064 for the second.

PRPPAPPDPAPP and PRPPLRPPPISP are within error of each other in protein stability index: 0.746 ± 0.072 for the first, 0.68 ± 0.066 for the second.

PRPPPLPPQTSS and PRPPPSPPPILP are within error of each other in protein stability index: 0.73 ± 0.1 for the first, 0.676 ± 0.0072 for the second.

PRPPPSPTPPLT and PRPPRPPRPPLP are within error of each other in protein stability index: 0.69 ± 0.095 for the first, 0.66 ± 0.016 for the second.

PRPPTPPTTILN and PRPPYHAPSTFP are within error of each other in protein stability index: 0.652 ± 0.032 for the first, 0.575 ± 0.074 for the second.

PRPRQPPPPPPP and PRPRSPSPPLPP are within error of each other in protein stability index: 0.689 ± 0.0076 for the first, 0.705 ± 0.01 for the second.

PRPRTPPPLLSF and PRPSRILPLPAP are within error of each other in protein stability index: 0.687 ± 0.057 for the first, 0.65 ± 0.0072 for the second.

First: PRRLFFFFFLSG
Second: PRRPLPTISCPS
The protein stability index of the first is higher: 0.656 ± 0.017 for the first, 0.618 ± 0.005 for the second.

PRRSPPCSTPPP and PRRVGRLGAPMG are within error of each other in protein stability index: 0.726 ± 0.077 for the first, 0.719 ± 0.11 for the second.

PRSAAQSQMRRK and PRSCPPFLPSLP are within error of each other in protein stability index: 0.711 ± 0.056 for the first, 0.727 ± 0.0099 for the second.

PRSRPTCYSRPG and PRSSSRAGRTGT are within error of each other in protein stability index: 0.702 ± 0.04 for the first, 0.712 ± 0.031 for the second.

PRSSTSFLPSFL and PRSVPLCALLSL are within error of each other in protein stability index: 0.678 ± 0.064 for the first, 0.654 ± 0.024 for the second.

PRVPLPPPHPLH and PRVTPRFSKHAL are within error of each other in protein stability index: 0.728 ± 0.073 for the first, 0.724 ± 0.016 for the second.

PSALPLFWSELF and PSALSSSAPSSP are within error of each other in protein stability index: 0.661 ± 0.022 for the first, 0.667 ± 0.043 for the second.

PSCFNAPRHPPT and PSCRPPLLHPDS are within error of each other in protein stability index: 0.749 ± 0.076 for the first, 0.721 ± 0.0094 for the second.

PSFLTGRPISPV and PSGRPPGHDNLV are within error of each other in protein stability index: 0.677 ± 0.018 for the first, 0.666 ± 0.045 for the second.

PSHAAPVPAPQP and PSHTPNHTGYPD are within error of each other in protein stability index: 0.628 ± 0.079 for the first, 0.681 ± 0.02 for the second.
